B1: TMPRSS4 Ab52 scFv (VH-VL) (scFv)
scFv: QVQLVQSGAEVKKPGASVKVSCKASGYTFTRYYIHWVRQAPGQGLEWMGWMNPNSGNTGFAQKLQGRVTMTRDTSTSTVYMELSSLRSEDTAVYYCARGPFPRGRLDLWGQGTLVTVSSGGGGSGGGGSGGGGSDIQMTQSPSSLSASVGDRVTITCRASQGISRWLGWYQQKPGKAPKLLIYGASNLQTGVPSRFSGSGSGTDFTLTISSLQPEDFATYYCQQSYSSPRTFGQGTKVEIK
notes: on monoclonal phage in the screen
B2: TMPRSS4 Ab59 scFv (VH-VL) (scFv)
scFv: QVQLVQSGAEVKKPGASVKVSCKASGGTFSSYTLSWVRQAPGQGLEWMGWIHPKSGVTKNAQKFQGRVTMTRDTSTSTVYMELSSLRSEDTAVYYCARGWVYGRMDAWGQGTTVTVSSGGGGSGGGGSGGGGSEIVMTQSPATLSVSPGERATLSCRASQSVSSNYLAWYQQKPGQAPRLLIYGASTRATGIPARFSGSGSGTEFTLTISSLQSEDFAVYYCQQYGTLPYTFGQGTKVEIK
notes: as for B1
B3: TMPRSS4 Ab53 scFv (VH-VL) (scFv)
scFv: QVQLVQSGAEVKKPGASVKVSCKASGYTFTRYYMHWVRQAPGQGLEWMGIINPTGGSTSYAQKFQGRVTMTRDTSTSTVYMELSSLRSEDTAVYYCARGRTWIQSSLGYWGQGTLVTVSSGGGGSGGGGSGGGGSDIQMTQSPSSLSASVGDRVTITCRASRSINRWLAWYQQKPGKAPKLLIYGASTLQSGVPSRFSGSGSGTDFTLTISSLQPEDFATYYCQQSYSTPTFGGGTKVEIK
notes: as for B1
B4: TMPRSS4 Ab5 scFv (VH-VL) (scFv)
scFv: QVQLVQSGAEVKKPGSSVKVSCKASGYTFTSYYMHWVRQAPGQGLEWMGRIIPILGATDYAQKFQGRVTITADESTSTAYMELSSLRSEDTAVYYCARAGYSSIAARPAFWGQGTLVTVSSGGGGSGSGGGGSGGGGSEIVMTQSPATLSVSPGERATLSCRASQSVSSNLAWYQQKPGQAPRLLIYGASTRATGIPARFSGSGSGTEFTLTISSLQSEDFAVYYCQQYYSPFPLTFGGGTKVEIK
notes: as for B1
B5: TMPRSS4 Ab49 scFv (VH-VL) (scFv)
scFv: QVQLVQSGAEVKKPGASVKVSCKASGYTFTGYYMHWVRQAPGQGLEWMGRINPNSGGTNYAQKFQGRVTMTRDTSTSTVYMELSSLRSEDTAVYYCARERAGYSSGQFDYWGQGTLVTVSSGGGGSGGGGSGGGGSDIQMTQSPSSLSASVGDRVTITCRASQSISNWLAWYQQKPGKAPKLLIYAASTLQNGVPSRFSGSGSGTDFTLTISSLQPEDFATYYCQQSYTFPITFGQGTKVEIK
notes: as for B1
B6: TMPRSS4 Ab6 scFv (VH-VL) (scFv)
scFv: QVQLVQSGAEVKKPGASVKVSCKASGYTFTSYYMHWVRQAPGQGLEWLGIINPSDYTTSYAQKFQGRVTMTRDTSTSTVYMELSSLRSEDTAVYYCARVASSSWYPGDENWYFDLWGRGTLVTVSSGGGGSGSGGGGSGGGGSDIVMTQSPDSLAVSLGERATINCKSSQSVLYSSNNKNYLAWYQQKPGQPPKLLIYWASTRESGVPDRFSGSGSGTDFTLTISSLQAEDVAIYYCQQYYAIPWTFGQGTKVEIK
notes: as for B1
B7: TMPRSS4 Ab50 scFv (VH-VL) (scFv)
scFv: QVQLVQSGAEVKKPGASVKVSCKASGYTFTGYYMHWVRQAPGQGLEWMGWINPNSGGTHYAQKFQGRVTMTRDTSTSTVYMELSSLRSEDTAVYYCARVRIGWLQSPPLYWGQGTLVTVSSGGGGSGGGGSGGGGSDIQMTQSPSSLSASVGDRVTITCRASQGISNYLAWYQQKPGKAPKLLIYATSRLQSGVPSRFSGSGSGTDFTLTISSLQPEDFATYYCQQSYKTPLTFGGGTKVEIK
notes: as for B1
B8: TMPRSS4 Ab54 scFv (VH-VL) (scFv)
scFv: QVQLVQSGAEVKKPGASVKVSCKASGYTFTSYYMQWVRQAPGQGLEWMGWMNPNSGNTGYAQKFQGRVTMTRDTSTSTVYMELSSLRSEDTAVYYCARVRIGWLQSPPLYWGQGTLVTVSSGGGGSGGGGSGGGGSDIQMTQSPSSLSASVGDRVTITCRASQGISNYLAWYQQKPGKAPKLLIYAASSLQSGVPSRFSGSGSGTDFTLTISSLQPEDFATYYCQQSYSIPFTFGPGTKVDIK
notes: as for B1

Molecular target: T1, Human TMPRSS4 (Transmembrane protease, serine 4), wild type full length (human, UniProt Q9NRS4 1-437)
T1 construct: Type II membrane protein over-expressed on HEK293T cells (also endogenous on H1975 and LUDLU-1 cells); also called TMPRSS4 WT; HEK293T-TMPRSS4
T1 sequence (Q9NRS4 whole entry): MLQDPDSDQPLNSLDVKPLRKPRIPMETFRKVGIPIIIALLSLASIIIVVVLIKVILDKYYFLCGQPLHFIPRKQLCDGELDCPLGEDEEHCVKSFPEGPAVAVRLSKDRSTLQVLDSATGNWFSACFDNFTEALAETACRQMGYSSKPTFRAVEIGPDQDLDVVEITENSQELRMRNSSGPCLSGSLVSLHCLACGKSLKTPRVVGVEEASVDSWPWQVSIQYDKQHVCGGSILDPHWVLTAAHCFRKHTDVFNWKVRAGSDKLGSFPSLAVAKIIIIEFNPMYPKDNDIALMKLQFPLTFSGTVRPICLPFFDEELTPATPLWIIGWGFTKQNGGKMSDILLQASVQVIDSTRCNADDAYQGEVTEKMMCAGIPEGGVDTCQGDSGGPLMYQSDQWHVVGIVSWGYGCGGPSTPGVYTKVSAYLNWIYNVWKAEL
Assay: flow cytometry, monoclonal phage on HEK293T-TMPRSS4 cells;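 note: bound phage detected with a PE-labelled mouse anti-M13 monoclonal antibody, read by flow cytometry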
Experimental: Monoclonal phages were prepared, screened for binding to HEK293T-TMPRSS4 cells by flow cytometry. Monoclonal phage clones were incubated with HEK293T-TMPRSS4 cells, the cells were washed and then incubated with a PE conjugated mouse anti-M13 mAb, and washed again before being analyzed by flow cytometry. The positive candidates were selected based on cytometry results, then followed by next-gen sequencing of the positive hits.

Row | Binder | binding result
1 | B1 | binds
2 | B2 | binds
3 | B3 | binds
4 | B4 | binds
5 | B5 | binds
6 | B6 | binds
7 | B7 | binds
8 | B8 | binds
